# Laboratory results: PMC9977310, “ABT1 modifies SMARD1 pathology via interactions with IGHMBP2 and stimulation of ATPase and helicase activity” (JCI Insight, 2023)
# T1: immunoglobulin mu DNA binding protein 2 (IGHMBP2), human, full length, thioredoxin-6xHis fusion from pET32b (human, UniProt P38935 1-993, RED-Tris-NTA (NT-647) fluorescent label in the MST)
# T1 construct: IGHMBP2, human, full-length cDNA synthesized (GenScript), cloned into pET32b; 110 kDa IGHMBP2 + ~14 kDa thioredoxin-6xHis, predicted ~124 kDa; pET32b may add further vector-coded residues (S-tag, linkers) between the tags and the protein; also called pET32b-IGHMBP2; pET32-IGHMBP2; source: bacterial cell lysate in the immunoprecipitation
# T1 sequence (looked up): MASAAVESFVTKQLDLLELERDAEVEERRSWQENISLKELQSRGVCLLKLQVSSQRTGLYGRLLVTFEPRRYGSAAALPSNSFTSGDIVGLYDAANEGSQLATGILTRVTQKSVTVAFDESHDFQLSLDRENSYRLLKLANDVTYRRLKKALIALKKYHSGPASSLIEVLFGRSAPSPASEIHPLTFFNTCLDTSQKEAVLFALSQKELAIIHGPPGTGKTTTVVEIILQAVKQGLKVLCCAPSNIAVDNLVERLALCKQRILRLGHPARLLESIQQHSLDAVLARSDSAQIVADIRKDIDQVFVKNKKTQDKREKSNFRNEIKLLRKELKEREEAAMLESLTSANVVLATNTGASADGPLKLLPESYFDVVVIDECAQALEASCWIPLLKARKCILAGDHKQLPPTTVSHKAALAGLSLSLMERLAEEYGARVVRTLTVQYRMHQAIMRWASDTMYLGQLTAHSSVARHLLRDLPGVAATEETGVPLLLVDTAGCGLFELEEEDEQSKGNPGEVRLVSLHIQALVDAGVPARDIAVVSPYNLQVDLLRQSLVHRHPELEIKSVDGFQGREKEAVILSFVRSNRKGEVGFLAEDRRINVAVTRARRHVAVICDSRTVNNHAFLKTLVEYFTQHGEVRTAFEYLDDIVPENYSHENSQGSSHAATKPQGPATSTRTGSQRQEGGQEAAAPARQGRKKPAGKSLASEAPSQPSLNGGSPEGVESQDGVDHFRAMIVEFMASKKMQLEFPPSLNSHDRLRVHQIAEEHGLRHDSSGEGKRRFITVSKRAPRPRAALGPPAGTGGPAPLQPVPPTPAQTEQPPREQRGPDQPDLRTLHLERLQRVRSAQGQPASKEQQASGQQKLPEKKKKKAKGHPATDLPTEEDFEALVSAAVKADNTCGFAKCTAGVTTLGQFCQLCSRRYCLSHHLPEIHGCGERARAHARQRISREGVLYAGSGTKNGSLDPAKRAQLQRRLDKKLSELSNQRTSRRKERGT
# B1: activator of basal transcription 1 (ABT1), mouse, full length, GST fusion from pGEX-6P1 (natural protein, UniProt Q9QYL7 1-269, looked up)
# chain: MVKAGELVEQQKAAMEEEANAEAAEDQEEPEDTACSSSSKKKKKVVPGIVYLGHVPPRFRPLHVRNLLSAYGEVGRVFFQAEDHFVKRKKKAAAAAGGKKGAKYSKDYTEGWVEFRDKRVAKRVAASLHNTPMGARKRSPFRYDLWNLKYLHRFTWSHLSEHLAFERQVRRQRLRAEVAQAKRETDFYLRNVEQGQHFLAADGDATRPNSSWTFTQRPTEQEFRARKAARPGGRERARLANVEDQARSNRGLLAKIFGAPLPAESKEKP
# notes: ABT1, mouse, full-length cDNA synthesized (GenScript), cloned into pGEX6P1; 31 kDa ABT1 + ~26 kDa GST, predicted ~57 kDa; Mouse ABT1 was tested against human IGHMBP2; No cleavage of GST is described; also called GST-ABT1; pGEX-ABT1; source: E. coli (BL21 and Rosetta strains used), purified on GST beads, eluted with reduced glutathione; bacterial cell lysate in the immunoprecipitation
# What was measured:
# [1] = test system: IGHMBP2;ABT1 (Homo sapiens;Mus musculus); experiment: MST; conditions: MST: 100 nM NT-647-labeled IGHMBP2 (+/- 100 nM ABT1), RNA titrated from 1 uM (single) or 500 nM each (two RNAs), buffer, salt, pH and temperature not stated. …
# [2] = target: T1, immunoglobulin mu DNA binding protein 2 …; experiment: not stated; stoichiometry of ABT1 to IGHMBP2, Supplemental Figure 1; told in the paragraph on DLS, method not given; conditions: both partners purified
# [3] = target: T1, immunoglobulin mu DNA binding protein 2 …; experiment: cell-based or functional assay
# [4] = target: T1, immunoglobulin mu DNA binding protein 2 …; experiment: MST; IGHMBP2 RED-Tris-NTA labelled, constant 100 nM; partner titrated (1 μM to 1.53 × 10^5 μM as printed); fit to a quadratic equation, MO.Affinity Analysis; conditions: both partners purified
molecule,measurement,setting,value
U3 snoRNA,Kd,[1],35 nM
5' ETS RNA + U3 snoRNA (annealed),Kd,"[1]; 100 nM IGHMBP2 + 100 nM ABT1, RNAs from 500 nM each",28 nM
5' ETS RNA (47S pre-rRNA),Kd,[1],> 697 nM
B1,stoichiometry N,[2],~1
same,"ATPase activity of IGHMBP2 (100 nM) with increasing ABT1 up to 120 nM (malachite green, free phosphate), fold increase over IGHMBP2 alone",[3],1.96 fold
same,"helicase activity of IGHMBP2 (100 nM) with increasing ABT1 up to 120 nM (Cy3-labelled DNA substrate), fold increase over IGHMBP2 alone",[3],1.41 fold
same,"nucleic acid unwinding rate of TP31-18mer duplex, 100 nM IGHMBP2 + 100 nM ABT1, 1-7 min (IGHMBP2 alone 1.141/min; printed as a 1.42-fold increase)",[3],5.96 min⁻¹
same,"rate of DNA substrate unwinding/nM protein, 100 nM IGHMBP2 with ABT1 20-100 nM, 7 min (IGHMBP2 alone 0.005/min; printed as 1.84-fold increased activity)",[3],0.01 min⁻¹
same,Kd,[4],~52 nM
